Article PMC5647379, “Calmodulin confers calcium sensitivity to the stability of the distal intracellular assembly domain of Kv7.2 channels” (Scientific Reports, 2017)

What was measured:
[1] = target: T1, dansylated calmodulin (D-CaM, 5-(dimethylamino)naphtalene-1-sulfonyl-calmodulin) (rat, UniProt P0DP29 1-149, dansyl (5-(dimethylamino)naphtalene-1-sulfonyl) label, residue not stated); test: other fluorescence titration; as a2 but with an excess of free Ca2+ (3.9 µM; 9.63 mM Ca2+ added to the Fluorescence buffer); apparent affinity (EC50); conditions: both partners purified
[2] = target: T1, dansylated calmodulin (D-CaM, …); test: other fluorescence titration; D-CaM 12.5 nM in the cuvette, increasing concentrations of GST-fusion protein; no Ca2+ (EGTA 10 mM); Tris-HCl 25 mM pH 7.4, KCl 120 mM, NaCl 5 mM, MgCl2 2 mM; 25 °C; apparent affinity (EC50 of a Hill fit to the fluorescence enhancement); conditions: both partners purified

EC50 [1]: 27.1 nM
EC50 [2]: 11 nM
B1: GST-Kv7.2 AB (helices AB fused to GST) (domain or fragment)
chain: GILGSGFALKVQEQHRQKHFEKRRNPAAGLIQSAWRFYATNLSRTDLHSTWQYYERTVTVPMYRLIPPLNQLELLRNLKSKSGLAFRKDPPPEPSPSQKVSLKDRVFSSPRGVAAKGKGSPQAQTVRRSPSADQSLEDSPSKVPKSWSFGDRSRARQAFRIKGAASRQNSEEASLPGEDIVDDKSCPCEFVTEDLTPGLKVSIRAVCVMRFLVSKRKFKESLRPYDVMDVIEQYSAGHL
